{"source": "paper PMC5646246", "about": "“Unraveling the Self-Assembly of the Pseudomonas aeruginosa XcpQ Secretin Periplasmic Domain Provides New Molecular Insights into Type II Secretion System Secreton Architecture and Dynamics” (mBio, 2017)", "binders": {"B1": {"name": "vHH04 nanobody directed against XcpQN (VHH)", "VHH": "QVQLVESGGGSVQAGGSLRLSCAASGNTDSSYYMGWFRQGPGKEREGVASIYIRAGIPYYTDSVKGRFTISQDNAKNTIYLQMNSLKPEDTAMYFCAGSVRTTIQPFKGNYYNYWGRGTQVTVSS", "notes": "camel nanobody; About 16 kDa; For the in vivo interference the histidine-tagged vHH04 was produced in the periplasm of P. aeruginosa PAO1 (IPTG-inducible); also called histidine-tagged vHH04; His-tagged vHH04; source: E. coli WK6, purified"}, "B2": {"name": "Trx-XcpQ_(N012)-S210C (domain or fragment)", "chain": "ENSGGNAFVPAGNQQEAHWTINLKDADIREFIDQISEITGETFVVDPRVKGQVSVVSKAQLSLSEVYQLFLSVMSTHGFTVVAQGDQARIVPNAEAKTEAGGGQSAPDRLETRVIQVQQSPVSELIPLIRPLVPQYGHLAAVPSANALIISDRSANIARIEDVIRQLDQKGSHDYCVINLRYGWVMDAAEVLNNAMSRGQAKGAAGAQVIADARTNRLIILGPPQARAKLVQLAQSLDTPTAR", "notes": "XcpQ secretin, Pseudomonas aeruginosa; subdomains N0, N1 and N2; Uncleaved thioredoxin fusion of m3; source: E. coli BL21(DE3)pLysS, purified; copies: 12"}, "B3": {"name": "Trx-XcpQ_(N012) fusion protein (domain or fragment)", "chain": "ENSGGNAFVPAGNQQEAHWTINLKDADIREFIDQISEITGETFVVDPRVKGQVSVVSKAQLSLSEVYQLFLSVMSTHGFTVVAQGDQARIVPNAEAKTEAGGGQSAPDRLETRVIQVQQSPVSELIPLIRPLVPQYGHLAAVPSANALIISDRSANIARIEDVIRQLDQKGSHDYSVINLRYGWVMDAAEVLNNAMSRGQAKGAAGAQVIADARTNRLIILGPPQARAKLVQLAQSLDTPTAR", "notes": "XcpQ secretin, Pseudomonas aeruginosa; subdomains N0, N1 and N2; Uncleaved thioredoxin fusion of m1; also called Trx-Q_(N012); source: E. coli BL21(DE3)pLysS, purified (SEC); copies: 12"}, "B4": {"name": "XcpQ_(N012)-T54C-Q86C (domain or fragment)", "chain": "ENSGGNAFVPAGNQQEAHWCINLKDADIREFIDQISEITGETFVVDPRVKGCVSVVSKAQLSLSEVYQLFLSVMSTHGFTVVAQGDQARIVPNAEAKTEAGGGQSAPDRLETRVIQVQQSPVSELIPLIRPLVPQYGHLAAVPSANALIISDRSANIARIEDVIRQLDQKGSHDYSVINLRYGWVMDAAEVLNNAMSRGQAKGAAGAQVIADARTNRLIILGPPQARAKLVQLAQSLDTPTAR", "modifications": "disulfide bridges between T54C and Q86C of neighbouring chains", "notes": "XcpQ secretin, Pseudomonas aeruginosa; subdomains N0, N1 and N2; source: E. coli BL21(DE3)pLysS, purified (same protocol as XcpQ_(N012), SEC without H2O2 treatment)"}, "B5": {"name": "XcpQ_(N012) (N0, N1 and N2 subdomains of the periplasmic N-terminal domain of the P. aeruginosa XcpQ secretin) (domain or fragment, Pseudomonas aeruginosa)", "chain": "ENSGGNAFVPAGNQQEAHWTINLKDADIREFIDQISEITGETFVVDPRVKGQVSVVSKAQLSLSEVYQLFLSVMSTHGFTVVAQGDQARIVPNAEAKTEAGGGQSAPDRLETRVIQVQQSPVSELIPLIRPLVPQYGHLAAVPSANALIISDRSANIARIEDVIRQLDQKGSHDYSVINLRYGWVMDAAEVLNNAMSRGQAKGAAGAQVIADARTNRLIILGPPQARAKLVQLAQSLDTPTAR", "notes": "XcpQ secretin of the Xcp type II secretion system, Pseudomonas aeruginosa; subdomains N0, N1 and N2; 26 kDa; the whole N domain covers residues 51 to 365; Found in solution as dimers (L) and dodecamers (H); also called matured XcpQ_(N012); untagged XcpQ_(N012)"}, "B6": {"name": "full-length XcpQ-S210C (natural protein)", "chain": "ENSGGNAFVPAGNQQEAHWTINLKDADIREFIDQISEITGETFVVDPRVKGQVSVVSKAQLSLSEVYQLFLSVMSTHGFTVVAQGDQARIVPNAEAKTEAGGGQSAPDRLETRVIQVQQSPVSELIPLIRPLVPQYGHLAAVPSANALIISDRSANIARIEDVIRQLDQKGSHDYCVINLRYGWVMDAAEVLNNAMSRGQAKGAAGAQVIADARTNRLIILGPPQARAKLVQLAQSLDTPTARSANTRVIRLRHNDAKTLAETLGQISEGMKNNGGQGGEQTGGGRPSNILIRADESTNALVLLADPDTVNALEDIVRQLDVPRAQVLVEAAIVEISGDIQDAVGVQWAINKGGMGGTKTNFANTGLSIGTLLQSLESNKAPESIPDGAIVGIGSSSFGALVTALSANTKSNLLSTPSLLTLDNQKAEILVGQNVPFQTGSYTTNSEGSSNPFTTVERKDIGVSLKVTPHINDGAALRLEIEQEISALLPNAQQRNNTDLITSKRSIKSTILAENGQVIVIGGLIQDDVSQAESKVPLLGDIPLLGRLFRSTKDTHTKRNLMVFLRPTVVRDSAGLAALSGKKYSDIRVIDGTRGPEGRPSILPTNANQLFDGQAVDLRELMTE", "modifications": "disulfide bridge between S210C of two chains", "notes": "XcpQ secretin, Pseudomonas aeruginosa, full length; Made with its own signal peptide and exported to the envelope; source: P. aeruginosa PAO1 ΔxcpQ, pJN vector, arabinose-induced, in membrane samples; not shown: V5, C-terminal, kept"}, "B7": {"name": "full-length XcpQ-T54C-Q86C (natural protein)", "chain": "ENSGGNAFVPAGNQQEAHWCINLKDADIREFIDQISEITGETFVVDPRVKGCVSVVSKAQLSLSEVYQLFLSVMSTHGFTVVAQGDQARIVPNAEAKTEAGGGQSAPDRLETRVIQVQQSPVSELIPLIRPLVPQYGHLAAVPSANALIISDRSANIARIEDVIRQLDQKGSHDYSVINLRYGWVMDAAEVLNNAMSRGQAKGAAGAQVIADARTNRLIILGPPQARAKLVQLAQSLDTPTARSANTRVIRLRHNDAKTLAETLGQISEGMKNNGGQGGEQTGGGRPSNILIRADESTNALVLLADPDTVNALEDIVRQLDVPRAQVLVEAAIVEISGDIQDAVGVQWAINKGGMGGTKTNFANTGLSIGTLLQSLESNKAPESIPDGAIVGIGSSSFGALVTALSANTKSNLLSTPSLLTLDNQKAEILVGQNVPFQTGSYTTNSEGSSNPFTTVERKDIGVSLKVTPHINDGAALRLEIEQEISALLPNAQQRNNTDLITSKRSIKSTILAENGQVIVIGGLIQDDVSQAESKVPLLGDIPLLGRLFRSTKDTHTKRNLMVFLRPTVVRDSAGLAALSGKKYSDIRVIDGTRGPEGRPSILPTNANQLFDGQAVDLRELMTE", "modifications": "disulfide bridge between T54C and Q86C of two chains", "notes": "as for B6"}}, "key": {"[1]": {"target": "T1, XcpQ_(N012) (N0, N1 and N2 subdomains of the periplasmic N-terminal domain of the P. aeruginosa XcpQ secretin) (Pseudomonas aeruginosa, UniProt P35818)", "T1 construct": "XcpQ secretin of the Xcp type II secretion system, Pseudomonas aeruginosa; subdomains N0, N1 and N2; 26 kDa; the whole N domain covers residues 51 to 365; Found in solution as dimers (L) and dodecamers (H); also called matured XcpQ_(N012); untagged XcpQ_(N012)", "experiment": "SEC; vHH04 mixed with the preformed XcpQ_(N012) multimer (dodecamer); shift of the H peak", "settings": "both partners purified"}, "[2]": {"target": "T2, XcpQ_(N012) with biotin tag (fixed on streptavidin sensors) (Pseudomonas aeruginosa) (UniProt P35818)", "T2 sequence (chain, biotin (biotin tag, site not stated))": "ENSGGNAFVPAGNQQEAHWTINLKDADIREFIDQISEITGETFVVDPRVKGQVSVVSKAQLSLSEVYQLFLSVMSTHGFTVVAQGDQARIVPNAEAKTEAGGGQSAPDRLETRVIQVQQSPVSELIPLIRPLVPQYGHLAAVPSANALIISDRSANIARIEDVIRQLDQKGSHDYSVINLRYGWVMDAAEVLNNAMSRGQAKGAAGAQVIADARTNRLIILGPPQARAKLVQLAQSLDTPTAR", "experiment": "BLI; XcpQ_(N012) fixed on streptavidin sensors by a biotin tag; soluble vHH04 from 0.156 to 10 µM"}, "[3]": {"target": "the molecule itself", "experiment": "negative-staining single-particle electron microscopy; SEC fractions diluted to 0.02-0.05 mg/ml, uranyl acetate stain, EMAN2 2D classes; 3D reconstruction with C6 symmetry imposed for the Trx fusions"}, "[4]": {"target": "the molecule itself", "experiment": "SEC; HiLoad 16/600 Superdex 200 column calibrated with standard proteins; purified protein alone"}, "[5]": {"target": "the molecule itself", "experiment": "SEC + cross-linking; XcpQ_(N012)-T54C-Q86C without H2O2 treatment, HiLoad Superdex 200 16/600; oligomeric fractions on SDS-PAGE under reducing and nonreducing conditions"}, "[6]": {"target": "T3, chitin binding protein D (CbpD), Xcp T2SS effector (Pseudomonas aeruginosa, UniProt Q9I589 26-389)", "T3 construct": "Coupled to the BLi sensor; source: purified", "T3 sequence": "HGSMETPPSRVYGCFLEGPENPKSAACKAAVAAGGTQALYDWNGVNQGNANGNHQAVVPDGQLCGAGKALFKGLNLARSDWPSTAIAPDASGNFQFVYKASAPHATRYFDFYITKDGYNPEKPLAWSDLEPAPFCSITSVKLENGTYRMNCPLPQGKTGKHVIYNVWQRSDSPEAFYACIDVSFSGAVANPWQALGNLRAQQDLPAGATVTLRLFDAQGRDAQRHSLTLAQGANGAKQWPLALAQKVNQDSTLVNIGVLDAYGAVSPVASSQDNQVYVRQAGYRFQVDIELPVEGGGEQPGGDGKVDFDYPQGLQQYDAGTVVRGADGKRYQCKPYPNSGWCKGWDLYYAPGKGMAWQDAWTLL", "experiment": "BLI; sensor coupled to CbpD or to XcpPp; XcpQ_(N012) alone or the XcpQ_(N012)-vHH04 complex in solution", "settings": "both partners purified"}, "[7]": {"target": "the molecule itself", "experiment": "cross-linking; in vivo disulfide cross-linking of V5-tagged full-length XcpQ variants in P. aeruginosa PAO1 ΔxcpQ; membranes with N-ethylmaleimide, SDS-PAGE denaturing, nonreducing or reducing, anti-V5 blot"}}, "note": "Values joined by “and” are separate entries in the source; they are usually repeats but may differ in a detail not shown here. Equal entries are not always repeated.", "data": [{"binder": "B1", "values": [{"measurement": "stoichiometry N", "setting": "[1]", "result": "6 vHH04 per XcpQ_(N012) dodecamer"}, {"measurement": "Kd", "setting": "[2]", "result": 5.6, "unit": "µM"}]}, {"binder": "B2", "values": [{"measurement": "binding result", "setting": "[3]", "result": "binds"}]}, {"binder": "B3", "values": [{"measurement": "stoichiometry N", "setting": "[4]", "result": 12}]}, {"binder": "B4", "values": [{"measurement": "stoichiometry N", "setting": "[5]", "result": "12 and 4 and 6"}]}, {"binder": "B5", "values": [{"measurement": "binding result", "setting": "[6]", "result": "binds"}]}, {"binder": "B6", "values": [{"measurement": "stoichiometry N", "setting": "[7]", "result": 2}]}, {"binder": "B7", "values": [{"measurement": "stoichiometry N", "setting": "[7]", "result": 2}]}]}
